Measurements published in patent publication US20230313180A1.
Read-outs that look alike come from different tables or passages of the source.

Tests used:
[1] = molecular target: SARS-CoV-2-RBD tagged with a C-terminal Fc tag (ACRO Biosystems) (SARS-CoV-2) (UniProt P0DTC2)
[2] = molecular target: SARS-CoV-2-RBD tagged with a C-terminal Fc tag (ACRO Biosystems) (SARS-CoV-2) (UniProt P0DTC2); assay: BLI, immobilized SARS-CoV-2 RBD
[3] = molecular target: T1, SARS-CoV-2-RBD tagged with a C-terminal Fc tag (ACRO Biosystems) (SARS-CoV-2), P0DTC2
[4] = molecular target: T1, SARS-CoV-2-RBD tagged with a C-terminal …; assay: BLI, immobilized SARS-CoV-2 RBD; reference Nb1-Nb1 genetic dimer
[5] = molecular target: T1, SARS-CoV-2-RBD tagged with a C-terminal …; remark: listed apart in the source
[6] = molecular target: T1, SARS-CoV-2-RBD tagged with a C-terminal …; assay: BLI, immobilized SARS-CoV-2 RBD; reference (Nb1N)2

For “Nb1-Nb1, genetically linked "tail to head" dimer of Nb1 (VHH72)”, the Kd [1] was 89 nM, the koff [1] was 0.00314 s⁻¹ and the kon [1] was 35400 M⁻¹ s⁻¹. The Kd [2] was 88 nM.

B1: (Nb142)2, homodimer of Nb1 (VHH72) with Tet3.0 at framework position Gly42, joined by the 2-headed sTCO (PEG)12 linker (VHH)
VHH: QVQLQESGGGLVQAGGSLRLSCAASGRTFSEYAMGWFRQAPGKEREFVATISWSGGSTYYTDSVKGRFTISRDNAKNTVYLQMNSLKPDDTAVYYCAAAGLGTVVSEWDYDYYLDYWGQGTQVTVSS
modifications: not checked
B1 gave a Kd [3] of 27.5 nM, a koff [3] of 0.00201 s⁻¹ and a kon [3] of 73100 M⁻¹ s⁻¹. For the same molecule, the fold tighter binding than Nb1-Nb1 [4] was 3 fold.

B2: (Nb113)2, homodimer of Nb1 (VHH72) with Tet3.0 at framework position Gln13, joined by the 2-headed sTCO (PEG)12 linker (VHH)
VHH: QVQLQESGGGLVQAGGSLRLSCAASGRTFSEYAMGWFRQAPGKEREFVATISWSGGSTYYTDSVKGRFTISRDNAKNTVYLQMNSLKPDDTAVYYCAAAGLGTVVSEWDYDYYLDYWGQGTQVTVSS
modifications: not checked
B2 gave a Kd [3] of 46 nM, a koff [3] of 0.00156 s⁻¹ and a kon [3] of 33800 M⁻¹ s⁻¹.

B3: (Nb1C)2, homodimer of Nb1 (VHH72) with Tet3.0 at the C-terminus, joined by the 2-headed sTCO (PEG)12 linker (VHH)
VHH: QVQLQESGGGLVQAGGSLRLSCAASGRTFSEYAMGWFRQAPGKEREFVATISWSGGSTYYTDSVKGRFTISRDNAKNTVYLQMNSLKPDDTAVYYCAAAGLGTVVSEWDYDYYLDYWGQGTQVTVSS
modifications: not checked
B3 gave a Kd [3] of 132 nM, a koff [3] of 0.0064 s⁻¹ and a kon [3] of 48100 M⁻¹ s⁻¹. It also gave a fold weaker binding than Nb1-Nb1 [4] of 1.5 fold.

B4: (Nb1N)3, homotrimer of Nb1 (VHH72) with Tet3.0 at the N-terminal position, joined by the 3-armed Tri-sTCO PEG linker (VHH)
VHH: SGTGSQVQLQESGGGLVQAGGSLRLSCAASGRTFSEYAMGWFRQAPGKEREFVATISWSGGSTYYTDSVKGRFTISRDNAKNTVYLQMNSLKPDDTAVYYCAAAGLGTVVSEWDYDYYLDYWGQGTQVTVSS
modifications: not checked
Molecule B4 has a Kd [5] of 2.31 nM, a koff [5] of 0.000566 s⁻¹ and a kon [5] of 246000 M⁻¹ s⁻¹. For the same molecule, the fold larger kon than (Nb1N)2 [6] was 3 fold, the fold smaller koff than (Nb1N)2 [6] was 2 fold and the fold tighter KD than (Nb1N)2 [6] was 6 fold. It also gave a fold tighter KD than the genetic dimer Nb1-Nb1 [4] of 44 fold.

B5: (Nb1N)2, homodimer of Nb1 (VHH72) with Tet3.0 at the N-terminal position, joined by the 2-headed sTCO (PEG)12 linker (VHH)
VHH: SGTGSQVQLQESGGGLVQAGGSLRLSCAASGRTFSEYAMGWFRQAPGKEREFVATISWSGGSTYYTDSVKGRFTISRDNAKNTVYLQMNSLKPDDTAVYYCAAAGLGTVVSEWDYDYYLDYWGQGTQVTVSS
modifications: not checked
Work on B5 yielded a Kd [3] of 13.8 nM, a koff [3] of 0.00119 s⁻¹ and a kon [3] of 85800 M⁻¹ s⁻¹. For the same molecule, the fold tighter binding than Nb1-Nb1 [4] was 7 fold.
